Common to all, as to assay: fluorescence polarization
(Fluorescence polarisation rises when a labelled molecule tumbles more slowly, as on binding a larger partner.)

For data set [1], the system named is PARP-2 WT. To be noted: none, FP: 5 nM labeled DNA, 30 min, RT, PARP-1/-2 buffer per cited ref 19, PARP-3 in 12 mM HEPES pH 8.0, 30 mM KCl (low) or 60 mM KCl (intermediate), 0.12 mM EDTA.
In data set [2] the test system is PARP-2 R140A. The note with it: 5' phosphate on one strand, FP: 5 nM labeled DNA, 30 min, RT, PARP-1/-2 buffer per cited ref 19, PARP-3 in 12 mM HEPES pH 8.0, 30 mM KCl (low) or 60 mM KCl (intermediate), 0.12 mM EDTA.
Data set [3] concerns PARP-2 N116A. The note with it: 5' phosphate on one strand, FP: 5 nM labeled DNA, 30 min, RT, PARP-1/-2 buffer per cited ref 19, PARP-3 in 12 mM HEPES pH 8.0, 30 mM KCl (low) or 60 mM KCl (intermediate), 0.12 mM EDTA.
Data set [4] deals with PARP-2 W138A. The note with it: 5' phosphate on one strand, FP: 5 nM labeled DNA, 30 min, RT, PARP-1/-2 buffer per cited ref 19, PARP-3 in 12 mM HEPES pH 8.0, 30 mM KCl (low) or 60 mM KCl (intermediate), 0.12 mM EDTA.
The subject of data set [5] is PARP-2 Y188F. The note with it: 5' phosphate on one strand, FP: 5 nM labeled DNA, 30 min, RT, PARP-1/-2 buffer per cited ref 19, PARP-3 in 12 mM HEPES pH 8.0, 30 mM KCl (low) or 60 mM KCl (intermediate), 0.12 mM EDTA.
For data set [6], the system named is dNTR-PARP-2. The note with it: 5' phosphate on one strand, FP: 5 nM labeled DNA, 30 min, RT, PARP-1/-2 buffer per cited ref 19, PARP-3 in 12 mM HEPES pH 8.0, 30 mM KCl (low) or 60 mM KCl (intermediate), 0.12 mM EDTA.
In data set [7] the test system is PARP-3 R103A. The note with it: 5' phosphate at nick, position 24, FP: 5 nM labeled DNA, 30 min, RT, PARP-1/-2 buffer per cited ref 19, PARP-3 in 12 mM HEPES pH 8.0, 30 mM KCl (low) or 60 mM KCl (intermediate), 0.12 mM EDTA.
Data set [8] has as its system PARP-3 Y150F. The note with it: 5' phosphate at nick, position 24, FP: 5 nM labeled DNA, 30 min, RT, PARP-1/-2 buffer per cited ref 19, PARP-3 in 12 mM HEPES pH 8.0, 30 mM KCl (low) or 60 mM KCl (intermediate), 0.12 mM EDTA.
In data set [9] the test system is dNTR-PARP-3. The note with it: low ionic strength buffer?, 5' phosphate at nick, position 24, FP: 5 nM labeled DNA, 30 min, RT, PARP-1/-2 buffer per cited ref 19, PARP-3 in 12 mM HEPES pH 8.0, 30 mM KCl (low) or 60 mM KCl (intermediate), 0.12 mM EDTA.

Consider three substances from publication PMC4081085.

With 28-bp duplex 5'OH (non-phosphorylated), the binding signal (fold lower affinity than for 5'P DNA) in [1] amounted to 2.5.

In the case of 28-bp duplex 5'P (template 18), the binding signal (% of WT affinity) in [2] came to 25; in [3], 45; in data set [4] it was 28; in data set [5], 7. In data set [6], this substance yielded a binding signal (fold lower affinity than WT) of 4.

Regarding 47-bp duplex with 5'P nick (template 8), the binding signal (% of WT affinity) in data set [7] was found to be 25; in [8], 54. For the same substance, the binding signal (fold lower affinity than WT) in data set [9] is 3.5.
